Experiments:
βc/JAK2 binding = experiment: Effect of blocking agents, detergents and DTT on the SPA (signal, background); parameters: species or system human
Description: (§1) Triplicate reactions were done for each data point. The buffer used in all the assays was 35 mM sodium phosphate, 150 mM NaCl, pH 8.0, 10% glycerol. Biotinylated peptides were allowed to bind to streptavidin-coated SPA beads (Amersham Life Sciences, Arlington Heights, Ill., catalog # RPNQ0006) with either less than saturating peptide or excess peptide. […] Under less than saturating conditions, beads and 40 pmole peptide were added to the assay plate well and incubated for one hour with gentle shaking on a Titer plate shaker (Lab-Line Instruments, Inc., Melrose Park, Ill.) at 600 rpm and not washed. […] The plates were then read on a MicroBeta (Wallac) set to read scintillation due to tritium.

[1] = target: NJAK2 (N-terminal portion of JAK2) (Homo sapiens, UniProt O60674); experiment: SPA: binding of 3H-NJAK2 (N-terminal JAK2) to βc peptides on streptavidin-coated beads; settings: less than saturating peptide, 40 pmole per reaction, FIG. 12B
Sequence of NJAK2 (N-terminal portion of JAK2) (O60674 1-294 S277G): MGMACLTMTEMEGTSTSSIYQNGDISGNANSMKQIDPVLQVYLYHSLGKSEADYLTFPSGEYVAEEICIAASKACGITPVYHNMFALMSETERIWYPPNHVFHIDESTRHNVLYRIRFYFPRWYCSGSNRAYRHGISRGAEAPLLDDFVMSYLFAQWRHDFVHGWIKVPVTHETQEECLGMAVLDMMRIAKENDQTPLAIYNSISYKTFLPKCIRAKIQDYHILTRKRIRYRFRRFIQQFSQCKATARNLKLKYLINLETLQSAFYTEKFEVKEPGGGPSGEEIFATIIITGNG
Description: (§2) Three different labeling reactions were done using ^3 H-N-succinimidyl propionate (^3 H-NSP, Amersham Life Sciences, Arlington Heights, Ill.). One reaction was done using 0.5 mg of purified JAK2 in 0.1 M borate buffer, pH 8.5, with a reaction volume of 150 μl and an incubation time of one hour on ice with dried 1 mCi of ^3 H-NSP (toluene was removed using a stream of nitrogen). […] Another reaction was done using the buffer 0.1 M sodium phosphate, pH 8.0, and a similar volume as before. One milligram of JAK2 in 1.2 ml of phosphate buffer was incubated for three hours on ice. […] A third reaction was done using 2.5 mg of purified JAK2 in 0.1 m sodium phosphate, pH 8.0, and 2.5 ml volume. It was incubated with 5 mCi of dried ^3 H-NSP on ice for 2 hours. […] All three products were separated from unincorporated label using PD-10 columns (Pharmacia Biotech, Uppsala, Sweden) pre-equilibrated with 20 mM Tris, pH 8.0, 0.15 M NaCl.
as §1
(§3) Either ^3 H-JAK2 or ^3 H-NJAK2 was added to the wells and, after incubation, the signals measured. […] A competition reaction was also done by adding 5 to 10-fold excess unlabeled JAK2 in those reactions.

JAK2 [2] = target: T1, JAK2 (Homo sapiens, UniProt O60674); experiment: SPA: binding of 3H-JAK2 to βc peptides on streptavidin-coated beads; parameters: NJAK2 = N-terminal 294 residues; settings: for activity profile in binding 3H-JAK2 (signal): less than saturating peptide, 40 pmole per reaction, FIG. 12A; for overall signals and signal-to-noise ratios, peptide and labeled JAK2 mixed prior to adding beads / activity profile, peptide and labeled JAK2 mixed prior to adding beads: mixed one hour before beads, FIG. 13; for overall signals and signal-to-noise ratios, peptide and labeled JAK2 mixed prior to adding beads: versus peptide bound to bead first; for signal: κ-casein included throughout the assay; for activity of C-terminal deletion peptide in the SPA: excess peptide, κ-casein 1 mg/ml
T1 sequence (O60674 3-1132): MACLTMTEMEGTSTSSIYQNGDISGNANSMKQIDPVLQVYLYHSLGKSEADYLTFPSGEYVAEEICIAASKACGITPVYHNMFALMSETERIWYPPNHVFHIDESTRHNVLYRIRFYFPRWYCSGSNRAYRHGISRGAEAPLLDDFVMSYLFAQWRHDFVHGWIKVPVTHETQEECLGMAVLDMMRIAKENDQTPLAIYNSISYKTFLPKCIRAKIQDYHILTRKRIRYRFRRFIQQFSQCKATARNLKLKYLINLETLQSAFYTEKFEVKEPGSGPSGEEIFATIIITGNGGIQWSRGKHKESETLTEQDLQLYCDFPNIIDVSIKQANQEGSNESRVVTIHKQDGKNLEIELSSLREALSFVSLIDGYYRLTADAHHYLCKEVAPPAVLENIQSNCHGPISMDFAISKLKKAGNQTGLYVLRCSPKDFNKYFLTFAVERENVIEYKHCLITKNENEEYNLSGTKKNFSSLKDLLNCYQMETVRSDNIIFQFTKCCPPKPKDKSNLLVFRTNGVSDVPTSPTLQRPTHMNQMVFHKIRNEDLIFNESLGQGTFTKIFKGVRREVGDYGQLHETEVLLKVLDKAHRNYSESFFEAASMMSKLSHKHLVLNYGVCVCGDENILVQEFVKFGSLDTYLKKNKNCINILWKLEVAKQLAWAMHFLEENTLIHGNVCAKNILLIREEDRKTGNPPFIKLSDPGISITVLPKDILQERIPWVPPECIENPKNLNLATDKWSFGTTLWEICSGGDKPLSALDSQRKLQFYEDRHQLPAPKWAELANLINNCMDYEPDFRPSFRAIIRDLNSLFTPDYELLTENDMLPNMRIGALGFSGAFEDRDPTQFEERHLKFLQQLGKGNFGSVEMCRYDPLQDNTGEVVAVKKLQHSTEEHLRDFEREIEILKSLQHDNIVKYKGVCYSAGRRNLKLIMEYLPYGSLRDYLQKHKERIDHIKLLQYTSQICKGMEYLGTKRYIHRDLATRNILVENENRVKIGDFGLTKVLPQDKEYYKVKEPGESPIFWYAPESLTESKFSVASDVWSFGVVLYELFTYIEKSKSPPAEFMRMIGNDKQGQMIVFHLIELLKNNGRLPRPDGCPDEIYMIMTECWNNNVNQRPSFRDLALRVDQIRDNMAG
Description: Cells were lysed by dounce homogenization (20 strokes) in 1X phosphate buffered saline (PBS), pH 7.5 at 4 C. […] For some experiments, the JAK2 protein (0.15 mg/ml), aliquoted into 7 equivalent tubes, was then subjected to ultracentrifugation in an Airfuge using an A-110 rotor at an average of 164,000×g for a period of 6 hours at ambient temperature. At zero time, and at each subsequent hour thereafter, a tube of JAK2 was removed for analyses (ELISA, SDS polyacrylamide gel electrophoresis, and Western blotting).
as §2, §1, §3

JAK2 [3] = target: T1, JAK2; experiment: ELISA binding of JAK2 to immobilized βc peptides; parameters: Y918N clone error corrected to Tyr; settings: for binding of JAK2 (ELISA): biotinylated peptides on streptavidin plate; for binding of JAK2 (ELISA) / saturation of JAK2 binding at 0.4 μM peptide (ELISA): FIG. 24
Description: βc peptides corresponding to the proposed JAK2 binding domain (Table 1) were serially diluted and bound 16 hours at room temperature to streptavidin coated 96-well plates (Boehringer-Mannheim, Indianapolis, Ind.) and blocked at 37° with 1% fetal bovine serum in PBS. JAK2 protein was serially diluted on the plate and allowed to bind for 1 hour at room temperature. Plates were washed between incubations with ELISA wash (PBS with 0.04% TWEEN 20). Detection was via anti-FLAG antibody (10 μg/ml, Kodak, New Haven, Conn.) followed by anti-mouse Ig conjugated to peroxidase (1:5000 dilution, Boehringer Mannheim) and 1 mg/ml 2,2'-azinobis(3-ethylbenzthiazolinesulfonic acid) (Sigma), 0.003% H2 O2, 28 mM citric acid, 44 mM Na2 HPO4.
The ELISA assay worked best when the biotinylated βc peptides were immobilized on a streptavidin 96-well plate and the JAK2 was allowed to bind. A dual titration of βc peptides vs. JAK2 was performed (FIG. 24). Peptide 1 [SEQ ID NO:11] (FIG. 24 A) and peptide 2 [SEQ ID NO:12] […] Because 0.4 μM peptide was calculated to saturate the number of biotin binding sites in each well, it was expected that the amount of JAK2 binding should saturate at this quantity of peptide. […] (FIGS. 24 C and D) but peptides 5 and 6 [SEQ ID NOS:15 and 16]

JAK2 [4] = target: T1, JAK2; experiment: SPA competition: soluble peptide/streptavidin against peptide 4-coated SPA beads for binding 3H-JAK2; parameters: Y918N clone error corrected to Tyr
Text: FIGS. 20 A and B illustrate a test of the ability of streptavidin-peptide 4 complexes to compete for binding of 3H-JAK2 to peptide 4-coated SPA beads. For A, #0 is a beads only control. In all reactions with peptide bound to beads, excess peptide 4 [SEQ ID NO:14] was bound to beads before adding soluble samples. The reaction in #1 is peptide 4 [SEQ ID NO:14] bound to beads only, no added peptide 4 [SEQ ID NO:14] or streptavidin. #2 contained soluble peptide 4/streptavidin at a ratio of 1:1. #3 contained soluble peptide 4/streptavidin at a ratio of 4:1. #4 contained 20 μM peptide 4 added as soluble peptide 4. #5 contained 20 μM streptavidin. […] For B, 0 is a beads only control. In all reactions with peptide bound to beads, excess peptide 4 was bound to beads in the presence of 1 mg/ml κ-casein (as described in Materials and Methods of Example 8) before adding soluble samples. The reaction in #1 is peptide 4 bound to beads only, no added peptide 4 or streptavidin. #2 contained peptide 1/streptavidin at a ratio of 4:1 and #3 contained peptide 4/streptavidin at a ratio of 4:1.
The assay was set up in 96-well plates (Wallac, catalog # 1450-401), Turku, Finland, using a total assay volume of 200, μl/well. Triplicate reactions were done for each data point. The buffer used in all the assays was 35 mM sodium phosphate, 150 mM NaCl, pH 8.0, 10% glycerol. Biotinylated peptides were allowed to bind to streptavidin-coated SPA beads (Amersham Life Sciences, Arlington Heights, Ill., catalog # RPNQ0006) with either less than saturating peptide or excess peptide. For 400 μg SPA beads used per reaction, there was the capacity to bind 49 pmole of biotin (given the binding capacity of 121 pmole biotin/mg bead). Under less than saturating conditions, beads and 40 pmole peptide were added to the assay plate well and incubated for one hour with gentle shaking on a Titer plate shaker (Lab-Line Instruments, Inc., Melrose Park, Ill.) at 600 rpm and not washed. Under conditions of excess peptide, beads and peptide (80 pmole of peptide per 400 μg of bead) were mixed in batch with or without 1 mg/ml K-casein added as described in Results and Discussion, incubated for one hour with rotation, washed three times with buffer and aliquotted into wells. ^3 H-JAK2 or ^3 H-NJAK2 and any other components to be tested were added and the reactions were mixed and incubated for one hour in the dark at room temperature. The plates were then read on a MicroBeta (Wallac) set to read scintillation due to tritium.
The ability of excess peptide 4 [SEQ ID NO: 14] to compete for binding of JAK2 was tested. Biotinylated peptide 4 was bound to streptavidin in solution to mimic the conditions of the peptide 4 bound to the beads. It was used at a ratio of 1:1 (peptide 4: streptavidin) and at a ratio of 4:1 to see whether having multiple peptides on one streptavidin molecule might do a better job of binding JAK2 and therefore of competing. […] This could be due to the free streptavidin pulling some of the peptide 4 [SEQ ID NO: 14] off the bead. […] Another SPA was done using peptide 4 [SEQ ID NO:14] or peptide 1 [SEQ ID NO:11] bound to streptavidin at a ratio of 4:1. […] The results are shown in panel B of FIG. 20.

O[C@H](CS)[C@H](O)CS (racemic) [dithiothreitol]
additional effect of dithiothreitol (βc/JAK2 binding; 0.1 or 1 mM DTT with Brij 35 0.0025%, FIG. 19B): no obvious additional effect

EKIPNPSKSHLFQNGSAELWP [peptide 1, βc peptide, N-terminal truncation]
activity profile in binding 3H-NJAK2 (signal) [1]: gave no signal | activity profile in binding 3H-JAK2 (signal) (JAK2 [2]): gave no signal | overall signals and signal-to-noise ratios, peptide and labeled JAK2 mixed prior to adding beads (JAK2 [2]): lower overall signals and signal-to-noise ratios | activity profile, peptide and labeled JAK2 mixed prior to adding beads (JAK2 [2]): same activity profile | signal (JAK2 [2]): very little signal | binding of JAK2 (ELISA) (JAK2 [3]): no binding activity | competition for binding of JAK2 (JAK2 [4]; peptide/streptavidin 4:1, beads with 1 mg/ml κ-casein, FIG. 20B): decrease in signal

FCGIYGYRLRRKWEEKIPNPSKSHLFQNGSAELWP [peptide 5, βc peptide, N-terminal truncation]
activity profile in binding 3H-NJAK2 (signal) [1]: peptide 4>peptide 3>peptide 5>peptide 6>peptides 1 and 2 | activity profile in binding 3H-JAK2 (signal) (JAK2 [2]): peptide 4>peptide 3>peptide 5>peptide 6>peptides 1 and 2 | saturation of JAK2 binding at 0.4 μM peptide (ELISA) (JAK2 [3]): did not show saturation

GIYGYRLRRKWEE [CTD-5, C-terminal deletion of peptide 4]
activity of C-terminal deletion peptide in the SPA (JAK2 [2]; 10 nM labeled JAK2, FIG. 21B): as active as peptide 4

GIYGYRLRRKWEEKIPN [CTD-4, C-terminal deletion of peptide 4]
activity of C-terminal deletion peptide in the SPA (JAK2 [2]; 32.5 nM labeled JAK2, FIG. 21A): slight decrease in the activity

LALRFCGIYGYRLRRKWEEKIPNPSKSHLFQNGSAELWP [peptide 6, βc peptide]
activity profile in binding 3H-NJAK2 (signal) [1]: peptide 4>peptide 3>peptide 5>peptide 6>peptides 1 and 2 | activity profile in binding 3H-JAK2 (signal) (JAK2 [2]): peptide 4>peptide 3>peptide 5>peptide 6>peptides 1 and 2 | overall signals and signal-to-noise ratios, peptide and labeled JAK2 mixed prior to adding beads (JAK2 [2]): lower overall signals and signal-to-noise ratios | activity profile, peptide and labeled JAK2 mixed prior to adding beads (JAK2 [2]): same activity profile | signal (JAK2 [2]): very little signal | saturation of JAK2 binding at 0.4 μM peptide (ELISA) (JAK2 [3]): did not show saturation

RKWEEKIPNPSKSHLFQNGSAELWP [peptide 2, βc peptide, N-terminal truncation]
activity profile in binding 3H-NJAK2 (signal) [1]: gave no signal | activity profile in binding 3H-JAK2 (signal) (JAK2 [2]): gave no signal | binding of JAK2 (ELISA) (JAK2 [3]): no binding activity

YRLRRKWEEKIPNPSKSHLFQNGSAELWP [peptide 3, βc peptide, N-terminal truncation]
activity profile in binding 3H-NJAK2 (signal) [1]: peptide 4>peptide 3>peptide 5>peptide 6>peptides 1 and 2 | suitability in the SPA (JAK2 [2]): two most optimal | activity profile in binding 3H-JAK2 (signal) (JAK2 [2]): peptide 4>peptide 3>peptide 5>peptide 6>peptides 1 and 2 | suitability for the ELISA (JAK2 [3]): appear optimal

bovine serum albumin [BSA]
effect on background (βc/JAK2 binding; BSA 0.1 or 0.5 mg/ml, FIG. 16): no effect | effect on signal (βc/JAK2 binding; BSA 0.1 or 0.5 mg/ml, FIG. 16): slight positive effect

streptavidin [reference compound]
signal with streptavidin alone (JAK2 [4]; 20 μM streptavidin, FIG. 20A): decreases the signal to a greater extent than streptavidin with peptide 4

κ-casein
effect on signal and background (βc/JAK2 binding; κ-casein during binding of excess peptide to beads, washed away, FIG. 15): decreases both signal and background

From patent US6187552A, “Method for identifying inhibitors of JAK2/cytokine receptor binding” (Pharmacia & Upjohn Company, priority 1998, dated 2001)
